Test results reported in patent EP4692122A1, “HUMANIZED ANTIBODIES TARGETING EPHA10” (priority 2023, dated 2024).
Residue numbers refer to the chain shown, from its start.

T1: mouse EphA10 on mouse EphA10 overexpressing cell line (mouse, UniProt Q8BYG9 23-1007)
T1 construct: whole, on cells; Parent cell line of the mouse EphA10 overexpressing line not clearly stated
T1 sequence (looked up): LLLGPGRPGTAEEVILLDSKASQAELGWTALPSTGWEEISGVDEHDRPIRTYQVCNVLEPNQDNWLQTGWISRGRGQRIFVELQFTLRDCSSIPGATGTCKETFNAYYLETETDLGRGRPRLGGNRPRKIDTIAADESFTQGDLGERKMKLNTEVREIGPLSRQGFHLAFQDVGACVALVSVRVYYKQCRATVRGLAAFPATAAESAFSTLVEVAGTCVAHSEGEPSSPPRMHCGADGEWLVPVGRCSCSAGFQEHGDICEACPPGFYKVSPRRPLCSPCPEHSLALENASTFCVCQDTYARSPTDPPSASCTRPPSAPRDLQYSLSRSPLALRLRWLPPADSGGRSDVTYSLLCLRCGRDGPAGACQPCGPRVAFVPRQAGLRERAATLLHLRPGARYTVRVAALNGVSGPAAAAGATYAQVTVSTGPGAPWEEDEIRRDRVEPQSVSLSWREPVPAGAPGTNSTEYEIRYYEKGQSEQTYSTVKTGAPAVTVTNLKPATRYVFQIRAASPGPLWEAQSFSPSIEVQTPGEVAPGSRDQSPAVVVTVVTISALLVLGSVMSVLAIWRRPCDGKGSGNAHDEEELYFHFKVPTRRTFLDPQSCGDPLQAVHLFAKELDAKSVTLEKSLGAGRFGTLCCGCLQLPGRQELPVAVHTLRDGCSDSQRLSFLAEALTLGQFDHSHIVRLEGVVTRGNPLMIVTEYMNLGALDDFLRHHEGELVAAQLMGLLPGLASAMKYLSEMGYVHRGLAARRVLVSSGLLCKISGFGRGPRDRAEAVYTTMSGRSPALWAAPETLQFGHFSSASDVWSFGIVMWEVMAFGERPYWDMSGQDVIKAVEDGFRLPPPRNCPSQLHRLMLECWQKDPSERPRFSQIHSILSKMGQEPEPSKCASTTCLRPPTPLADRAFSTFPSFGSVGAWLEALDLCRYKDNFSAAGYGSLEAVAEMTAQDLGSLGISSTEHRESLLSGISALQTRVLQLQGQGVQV

T2: human EphA10 on MDA-MB-231 human EphA10 overexpressing cell line (human, UniProt Q5JZY3 34-1008)
T2 construct: whole, on cells; also called hEphA10; cell-expressing-EphA10
T2 sequence (looked up): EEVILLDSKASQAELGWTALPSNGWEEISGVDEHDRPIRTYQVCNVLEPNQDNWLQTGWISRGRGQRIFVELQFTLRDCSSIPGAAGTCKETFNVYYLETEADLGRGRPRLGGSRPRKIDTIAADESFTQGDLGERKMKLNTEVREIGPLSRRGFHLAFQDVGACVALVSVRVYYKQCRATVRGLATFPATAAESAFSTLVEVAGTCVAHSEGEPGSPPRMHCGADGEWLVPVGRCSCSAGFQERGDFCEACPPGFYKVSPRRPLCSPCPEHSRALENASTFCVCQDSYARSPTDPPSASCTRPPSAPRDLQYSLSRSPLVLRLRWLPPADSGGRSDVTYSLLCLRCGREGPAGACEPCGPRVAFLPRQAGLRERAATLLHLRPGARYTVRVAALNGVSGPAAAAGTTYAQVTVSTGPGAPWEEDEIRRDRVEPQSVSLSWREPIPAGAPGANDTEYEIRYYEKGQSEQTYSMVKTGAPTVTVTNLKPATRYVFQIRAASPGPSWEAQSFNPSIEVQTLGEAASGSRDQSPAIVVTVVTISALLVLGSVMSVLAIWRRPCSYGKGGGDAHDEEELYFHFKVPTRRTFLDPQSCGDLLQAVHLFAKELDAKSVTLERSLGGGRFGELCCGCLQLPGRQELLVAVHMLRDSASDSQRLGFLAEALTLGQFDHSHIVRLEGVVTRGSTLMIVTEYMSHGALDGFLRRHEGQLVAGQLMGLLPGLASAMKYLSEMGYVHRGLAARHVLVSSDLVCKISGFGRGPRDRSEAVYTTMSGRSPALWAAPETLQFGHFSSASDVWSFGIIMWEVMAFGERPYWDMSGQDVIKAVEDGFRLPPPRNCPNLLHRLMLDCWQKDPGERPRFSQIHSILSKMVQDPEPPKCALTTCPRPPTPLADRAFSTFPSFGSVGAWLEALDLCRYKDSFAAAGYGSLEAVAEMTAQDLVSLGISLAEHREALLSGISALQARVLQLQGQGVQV

T3: mEphA10-Fc (mouse EphA10 fused with human Fc) (mouse; human, UniProt Q8BYG9 23-565)
T3 construct: extracellular domain; not shown: human Fc
T3 sequence (looked up): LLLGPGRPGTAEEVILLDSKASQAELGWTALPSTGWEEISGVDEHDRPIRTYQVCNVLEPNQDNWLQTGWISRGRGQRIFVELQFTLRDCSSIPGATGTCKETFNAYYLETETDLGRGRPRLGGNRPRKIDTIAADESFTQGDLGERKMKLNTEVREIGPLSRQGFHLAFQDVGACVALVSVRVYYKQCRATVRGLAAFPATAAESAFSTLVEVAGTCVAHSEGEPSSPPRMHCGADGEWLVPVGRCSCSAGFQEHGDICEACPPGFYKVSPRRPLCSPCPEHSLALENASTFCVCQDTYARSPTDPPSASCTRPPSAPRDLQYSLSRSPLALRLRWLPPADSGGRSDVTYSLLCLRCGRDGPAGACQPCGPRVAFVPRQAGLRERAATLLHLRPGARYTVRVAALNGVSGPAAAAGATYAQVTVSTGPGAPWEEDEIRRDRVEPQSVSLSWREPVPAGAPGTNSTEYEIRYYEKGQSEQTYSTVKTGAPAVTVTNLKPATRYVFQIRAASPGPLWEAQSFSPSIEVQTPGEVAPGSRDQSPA

T4: EphA10 fused with human Fc (Homo sapiens, UniProt Q5JZY3)
T4 construct: a vector for expressing an extra cellular domain (ECD) of EphA10 or a FNIII domain of the ECD was produced; made in house; host or cells: Expi293F
T4 sequence (Q5JZY3 34-565 limits assumed): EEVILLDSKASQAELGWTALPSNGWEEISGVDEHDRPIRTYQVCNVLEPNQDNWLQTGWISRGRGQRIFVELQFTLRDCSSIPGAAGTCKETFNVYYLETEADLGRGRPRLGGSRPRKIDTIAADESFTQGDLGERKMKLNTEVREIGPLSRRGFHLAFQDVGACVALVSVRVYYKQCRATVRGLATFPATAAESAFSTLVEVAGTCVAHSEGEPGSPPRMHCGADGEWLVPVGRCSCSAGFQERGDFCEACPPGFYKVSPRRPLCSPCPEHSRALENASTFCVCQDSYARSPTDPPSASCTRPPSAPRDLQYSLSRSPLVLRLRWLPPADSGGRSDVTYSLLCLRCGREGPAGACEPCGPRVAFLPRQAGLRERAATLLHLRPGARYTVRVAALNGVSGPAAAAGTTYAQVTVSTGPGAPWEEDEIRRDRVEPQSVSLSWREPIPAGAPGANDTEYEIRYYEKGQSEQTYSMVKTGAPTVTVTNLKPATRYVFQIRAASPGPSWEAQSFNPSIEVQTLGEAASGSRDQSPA

B1: EphA10-specific humanized antibody 1-1 (antibody, V domains shown)
VH: QVTLKESGPTLVKPTQTLTLTCTFSGFSLSTSGMGVGWIRQPPGKALEWLAHIWWDDVKRYNPALKSRLTITKDTSKNQVVLTMTNMDPVDTATYYCARTSFPAGVDYWGQGTLVTVSS
VL: DVVMTQSPLSLPVTLGQPASISCRSSQSLQNSNGNTCLNWFQQRPGQSPRRLIYRVSNRFSGVPDRFSGSGSGTDFTLKISRVEAEDVGVYYCLQVTHVPFTFGQGTKLEIKR
notes: Expressed in Expi293F cells in IgG form; detected with anti-human kappa chain; also called IMGT 1-1
B2: EphA10-specific humanized antibody 1-2 (antibody, V domains shown)
VH: B1 VH
VL: B1 VL with V2I, S7T, P12S, L15P, F41Y, Q42L, R44K, R50Q, R51L
notes: Expressed in Expi293F cells in IgG form; detected with anti-human kappa chain; also called IMGT 1-2
B3: antibody A.7 (antibody, V domains shown)
VH: B1 VH
VL: B1 VL with C37Y, V96G
notes: also called A7 antibody
B4: antibody 2-W (antibody, V domains shown)
VH: B1 VH
VL: B1 VL with V2I, S7T, P12S, L15P, C37W, F41Y, Q42L, R44K, R50Q, R51L
notes: 1-2 with the free light chain CDR cysteine replaced by tryptophan; IgG form; also called 2W antibody; W2
B5: 1-1 (ADC) (conjugate)
VH: B1 VH
VL: B1 VL
modifications: non-natural residues

Columns and labels:
[1] = target: T1, mouse EphA10 on mouse EphA10 …; assay: flow cytometry on mouse EphA10 overexpressing cells, 500 ng antibody
[2] = target: T2, human EphA10 on MDA-MB-231 human EphA10 …; assay: flow cytometry on MDA-MB-231 human EphA10 overexpressing cells, 500 ng antibody
[3] = target: T3, mEphA10-Fc (mouse EphA10 fused with …); assay: ELISA, mEphA10-Fc coated, anti-human kappa HRP
[4] = test system: hEphA10 overexpressing cell line; assay: Cancer cell killing by cell survival analysis using ATP measurement (CellTiter-Glo); format: cell-based, human; settings: stated as a consequence of the lost EphA10 binding of the ADC (FIG. 11)
Method: To confirm the efficacy of ADC in vitro, a cancer cell killing effect was confirmed through cell survival analysis using ATP measurement. Specifically, MDA-MB-231 naive cells (control group), a mock cell line (negative control group), and a hEphA10 overexpressing cell line were dispensed at 2 × 10^4 per well in a 96-well white plate (SPL), respectively, and the following day, the ADC produced in Example 6 was diluted in RPMI (Capricorn) for each concentration, treated by 100 µl per well, and then incubated at 37°C for 48 hours. The ADC-treated plate was incubated at room temperature outside the incubator for 5 minutes, 50 µl of a CellTiter-Glo solution was added to each well, and then the plate was shaken at 500 rpm for 2 minutes. After reacting for 10 minutes on a room temperature bench in a light-blocked state, ATP was measured using a Synergy HTX multimode reader (Biotek).
To verify the effect of two types of EphA10-targeting ADCs A7-MMAE and 2W_MMAE produced using A7 and 2W antibodies, cell viability analysis of cancer cells was performed by measuring ATP as in Example 7-1 above.

[5] = target: T4, EphA10 fused with human Fc; assay: ELISA analysis of binding activity to EphA10; settings: ELISA (FIG. 11, FIG. 20)
Method: The binding activity to EphA10 of the five EphA10-binding humanized antibodies purified in Example 3 was analyzed by ELISA. Specifically, 4 µg/ml of EphA10 fused with human Fc was diluted with a 0.05 M Na2CO3 (pH 9.6) solution and immobilized in 50 µl of a Flat Bottom Polystyrene High Bind 96-well microplate (costar) at 4°C for 16 hours, and then blocked with 100 µl of 4% skim milk (GenomicBase) at room temperature for 2 hours. […] 50 µl of a 1-Step Ultra TMB-ELISA substrate solution (Thermo Fisher Scientific) was added to develop color, and then added with 50 µl each of 2 M H2SO4 to terminate the reaction, and then analyzed using an Epoch microplate spectrophotometer (BioTek). […]
As the sequencing result, it was confirmed that a free cysteine amino acid that was not involved in disulfide bonds existed in the CDR region of the light chain of the EphA10-specific humanized antibody (FIG. 10). […] To verify this, the binding activities of EphA10-specific humanized antibody 1-1 and EphA10-targeting ADC antibody 1-1 (ADC) after ADC production were analyzed and compared by ELISA.
In Example 8 above, the binding activity to EphA10 of antibodies 1-1-A, 1-1-S, 1-2-A, and 1-2-S, in which the free cysteines present in the light chains of two types of EphA10-specific humanized antibodies 1-1 and 1-2 were substituted with serines and alanines, was analyzed by ELISA. […]

| Molecule | binding result [1] | binding result [2] | binding result [3] | also measured |
| --- | --- | --- | --- | --- |
| B1 | binds | binds | – | – |
| B2 | binds | binds | – | – |
| B3 | – | – | binds | – |
| B4 | – | – | binds | – |
| B5 | – | – | – | in vitro ADC efficacy [4]: greatly reduced; EphA10 binding activity of the ADC compared with the antibody before ADC production [5]: greatly reduced |
